Laboratory results reported in IntAct's records for PubMed 17962809.

B1: Serine/threonine-protein kinase D2 (Homo sapiens), Q9BZL6 (parent)
chain: MATAPSYPAGLPGSPGPGSPPPPGGLELQSPPPLLPQIPAPGSGVSFHIQIGLTREFVLLPAASELAHVKQLACSIVDQKFPECGFYGLYDKILLFKHDPTSANLLQLVRSSGDIQEGDLVEVVLSASATFEDFQIRPHALTVHSYRAPAFCDHCGEMLFGLVRQGLKCDGCGLNYHKRCAFSIPNNCSGARKRRLSSTSLASGHSVRLGTSESLPCTAEELSRSTTELLPRRPPSSSSSSSASSYTGRPIELDKMLLSKVKVPHTFLIHSYTRPTVCQACKKLLKGLFRQGLQCKDCKFNCHKRCATRVPNDCLGEALINGDVPMEEATDFSEADKSALMDESEDSGVIPGSHSENALHASEEEEGEGGKAQSSLGYIPLMRVVQSVRHTTRKSSTTLREGWVVHYSNKDTLRKRHYWRLDCKCITLFQNNTTNRYYKEIPLSEILTVESAQNFSLVPPGTNPHCFEIVTANATYFVGEMPGGTPGGPSGQGAEAARGWETAIRQALMPVILQDAPSAPGHAPHRQASLSISVSNSQIQENVDIATVYQIFPDEVLGSGQFGVVYGGKHRKTGRDVAVKVIDKLRFPTKQESQLRNEVAILQSLRHPGIVNLECMFETPEKVFVVMEKLHGDMLEMILSSEKGRLPERLTKFLITQILVALRHLHFKNIVHCDLKPENVLLASADPFPQVKLCDFGFARIIGEKSFRRSVVGTPAYLAPEVLLNQGYNRSLDMWSVGVIMYVSLSGTFPFNEDEDINDQIQNAAFMYPASPWSHISAGAIDLINNLLQVKMRKRYSVDKSLSHPWLQEYQTWLDLRELEGKMGERYITHESDDARWEQFAAEHPLPGSGLPTDRDLGGACPPQDHDMQGLAERISVL
partner: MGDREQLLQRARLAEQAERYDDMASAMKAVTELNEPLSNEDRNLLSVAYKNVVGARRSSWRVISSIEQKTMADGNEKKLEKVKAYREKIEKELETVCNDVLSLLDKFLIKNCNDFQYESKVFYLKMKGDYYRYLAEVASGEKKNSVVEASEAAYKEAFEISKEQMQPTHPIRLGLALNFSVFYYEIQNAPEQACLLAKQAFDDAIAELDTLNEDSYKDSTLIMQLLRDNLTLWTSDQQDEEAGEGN

Variants of: B1
Conditions: with 1433f_human YWHAH

effect of a mutation on the interaction | Variant
disrupting interaction | S244E;S706E;S710E
